Measured values as given in article PMC6750902.

How the values were obtained:
[1] = biological target: Anti-CRISPR protein AcrIIC2; experiment: AUC
[2] = biological target: Neisseria meningitidis Cas9 (NmeCas9), full length (Neisseria meningitidis) (UniProt C9X1G5); experiment: SEC + other: quantitative SDS-PAGE against standards
NmeCas9 = biological target: T1, NmeCas9 (Neisseria meningitidis, UniProt C9X1G5 1-1082); experiment: DRaCALA
T1 sequence: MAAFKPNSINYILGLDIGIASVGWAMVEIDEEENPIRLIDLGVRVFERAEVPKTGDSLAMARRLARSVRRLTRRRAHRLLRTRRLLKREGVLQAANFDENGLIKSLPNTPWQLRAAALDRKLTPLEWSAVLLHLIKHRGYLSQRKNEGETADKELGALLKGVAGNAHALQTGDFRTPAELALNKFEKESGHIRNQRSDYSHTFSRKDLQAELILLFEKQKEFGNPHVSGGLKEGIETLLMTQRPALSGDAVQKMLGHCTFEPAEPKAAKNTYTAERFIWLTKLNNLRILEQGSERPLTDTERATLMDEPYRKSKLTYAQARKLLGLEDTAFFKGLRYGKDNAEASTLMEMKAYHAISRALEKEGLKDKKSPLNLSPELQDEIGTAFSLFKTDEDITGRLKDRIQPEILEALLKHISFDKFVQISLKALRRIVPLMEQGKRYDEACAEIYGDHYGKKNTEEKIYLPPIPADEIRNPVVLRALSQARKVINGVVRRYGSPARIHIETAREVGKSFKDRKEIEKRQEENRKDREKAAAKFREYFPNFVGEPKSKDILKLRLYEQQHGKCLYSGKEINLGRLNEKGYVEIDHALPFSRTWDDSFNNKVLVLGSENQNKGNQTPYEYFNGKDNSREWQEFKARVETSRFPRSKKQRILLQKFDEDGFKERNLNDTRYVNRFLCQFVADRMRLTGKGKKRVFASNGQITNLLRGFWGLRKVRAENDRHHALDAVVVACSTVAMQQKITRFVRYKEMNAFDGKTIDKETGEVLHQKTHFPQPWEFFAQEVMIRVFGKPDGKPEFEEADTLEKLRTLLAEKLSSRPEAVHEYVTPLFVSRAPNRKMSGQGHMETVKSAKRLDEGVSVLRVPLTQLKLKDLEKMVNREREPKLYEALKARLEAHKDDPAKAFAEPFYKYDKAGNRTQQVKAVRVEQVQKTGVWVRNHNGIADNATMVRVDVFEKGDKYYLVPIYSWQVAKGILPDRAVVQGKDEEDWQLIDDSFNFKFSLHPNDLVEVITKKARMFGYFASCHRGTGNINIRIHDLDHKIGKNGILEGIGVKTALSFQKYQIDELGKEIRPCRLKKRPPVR

Anti-CRISPR protein AcrIIC2 (natural protein)
stoichiometry N [1]: 2

Anti-CRISPR protein AcrIIC3 (natural protein)
stoichiometry N (AcrIIC3 per Cas9 (printed as 2:2)) [2]: 1

B1: NmeCas9 sgRNA, 94 nt (binding assay) (structured_RNA)
RNA: GGCUCCUCAGAUGUAGUAUUCAGAGUUGUAGCUCCCUUUCUGAAAAGAACCGUUGCUACAAUAAGGCCGUCUGAAAAGAUGUGCCGCAACGCUC
Kd (NmeCas9): 1.66 nM
